Source: US20140051633A1

Tests used:
[1] = target: human Hepatocyte Growth Factor (HGF) (human) (UniProt P14210); test: competition with ^3H-Hinge for soluble HGF
[2] = target: human Hepatocyte Growth Factor (HGF) (human) (UniProt P14210); test: competition with ^3H-Hinge for soluble HGF (1.25 ng), Bio-Gel P6 spin columns, scintillation counting
[3] = target: Hepatocyte Growth Factor (HGF), species not stated (Homo sapiens (Human)) (UniProt P14210); test: ^3H Dihexa binding to HGF (FIG. 43), repeated in the text
[4] = target: Hepatocyte Growth Factor (HGF), species not stated (Homo sapiens (Human)) (UniProt P14210); test: ^3H Dihexa incubated with different concentrations of HGF, Biogel P6 columns, scintillation counting

Sequence of human Hepatocyte Growth Factor (HGF) (human) (P14210 32-728 limits assumed): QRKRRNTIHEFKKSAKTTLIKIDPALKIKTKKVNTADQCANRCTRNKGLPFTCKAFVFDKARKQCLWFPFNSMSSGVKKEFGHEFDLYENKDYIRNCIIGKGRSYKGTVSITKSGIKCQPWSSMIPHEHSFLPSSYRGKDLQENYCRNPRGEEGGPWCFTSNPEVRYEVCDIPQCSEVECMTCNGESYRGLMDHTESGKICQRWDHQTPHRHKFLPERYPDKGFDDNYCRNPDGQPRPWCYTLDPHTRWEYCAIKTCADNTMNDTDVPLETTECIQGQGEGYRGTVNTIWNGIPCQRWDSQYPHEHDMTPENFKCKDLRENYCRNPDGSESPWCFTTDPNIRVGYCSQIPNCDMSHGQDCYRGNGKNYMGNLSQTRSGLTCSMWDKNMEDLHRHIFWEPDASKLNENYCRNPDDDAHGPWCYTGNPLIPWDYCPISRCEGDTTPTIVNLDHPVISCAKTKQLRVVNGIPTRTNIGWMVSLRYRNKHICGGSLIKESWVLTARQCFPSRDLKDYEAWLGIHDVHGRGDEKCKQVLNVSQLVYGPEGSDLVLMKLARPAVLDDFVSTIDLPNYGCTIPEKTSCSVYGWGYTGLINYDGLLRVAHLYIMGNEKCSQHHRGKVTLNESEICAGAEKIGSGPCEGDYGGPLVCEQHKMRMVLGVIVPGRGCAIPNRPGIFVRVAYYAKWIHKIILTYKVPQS
Sequence of Hepatocyte Growth Factor (HGF), species not stated (Homo sapiens (Human)) (P14210 32-494 limits assumed, form in doubt, chain 1 of 2): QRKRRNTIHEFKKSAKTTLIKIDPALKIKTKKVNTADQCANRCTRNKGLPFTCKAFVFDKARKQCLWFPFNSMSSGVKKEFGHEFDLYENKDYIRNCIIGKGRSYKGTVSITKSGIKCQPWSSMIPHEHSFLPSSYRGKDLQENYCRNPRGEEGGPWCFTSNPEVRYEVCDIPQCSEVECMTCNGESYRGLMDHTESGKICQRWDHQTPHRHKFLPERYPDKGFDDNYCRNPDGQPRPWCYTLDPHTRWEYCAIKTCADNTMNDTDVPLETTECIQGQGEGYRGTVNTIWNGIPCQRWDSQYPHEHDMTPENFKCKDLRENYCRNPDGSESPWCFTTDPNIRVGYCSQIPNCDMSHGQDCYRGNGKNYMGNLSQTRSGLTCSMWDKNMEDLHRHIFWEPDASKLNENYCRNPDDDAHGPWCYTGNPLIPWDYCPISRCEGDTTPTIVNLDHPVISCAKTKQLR
Sequence of Hepatocyte Growth Factor (HGF), species not stated (Homo sapiens (Human)) (P14210 495-728 limits assumed, form in doubt, chain 2 of 2): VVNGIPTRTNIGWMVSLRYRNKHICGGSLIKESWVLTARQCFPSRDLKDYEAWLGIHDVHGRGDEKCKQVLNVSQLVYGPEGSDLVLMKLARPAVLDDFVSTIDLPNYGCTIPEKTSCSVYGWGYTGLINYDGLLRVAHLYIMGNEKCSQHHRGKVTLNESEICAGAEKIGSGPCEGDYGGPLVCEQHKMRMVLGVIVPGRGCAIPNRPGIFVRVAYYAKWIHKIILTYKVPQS

Ki [1] [nM] | Ki [2] [nM] | Kd [3] [nM] | Kd [4] [nM] | Substance
137 | 138 | – | – | D-Nle-Met-Ile-NH-(CH2)5-CONH2 (peptide)
0.133 | 0.133 | – | – | D-Nle-Cys-Ile-NH-(CH2)5-CONH2 (peptide)
– | 3.37 | – | – | D-Nle-Trp-Ile-NH-(CH2)5-CONH2 (peptide)
– | – | 0.00022 | 0.000221 | Dihexa (N-hexanoic-Tyr-Ile-(6)-aminohexanoic amide) (peptide)
